Data: paper PMC9703140 (Nature chemical biology, 2022)

How the values were obtained:
[1] = target: TAPBPR^WT (luminal domain of TAPBPR C94S); assay: SPR
[2] = target: T1, MHC-related protein 1 (MR1), hpMR1 (Homo sapiens, UniProt Q95460); assay: 1D […] NMR titration; assay type: binding
[3] = target: T1, MHC-related protein 1 (MR1), hpMR1; assay: DSF of refolded complex; assay type: binding

Row | Molecule | Kd [1] [µM] | further results
1 | UV-irradiated HLA-A*02:01/hβ2m (empty, peptide-deficient) (from UniProt P61769 21-119) (complex) | 0.082 | 
2 | TAX9/HLA-A*02:01/hβ2m (from UniProt P61769 21-119) (peptide-MHC) | 18.5 | 
3 | Ac-6-FP loaded hMR1 C262S/hβ2m (from UniProt P61769 21-119) (complex) | 100 | 
4 | O=C(O)Cc1ccccc1Nc1c(Cl)cc(F)cc1Cl [19F-DCF, 2-(2-((2,6-dichloro-4-fluorophenyl)amino)phenyl)acetic acid] |  | Kd [2]: 36.1 µM
5 | O=Cc1c(O)ccc2ccccc12 [2OH1NA, 2-hydroxy-1-naphthaldehyde] |  | DSF of refolded complex (Tm 55.3 °C); NMR methyl HMQC [3]: 55.3 °C
6 | Ac-6-FP–hpMR1–bβ2m (from UniProt Q95460 23-290; P01888 21-118) (complex) | 104 | 
7 | Ac-6-FP loaded hMR1/hβ2m (wild type) (from UniProt P61769 21-119) (complex) | 100 | 
